Columns and labels:
NC(=O)c1ccc[n+]([O-])c1 = experiment: purified protein; details: purified enzyme, 0.2 mM methyl viologen, 0.3 mM dithionite, 20 mM sodium phosphate pH 6.8, 37°C
[O-][n+]1cccnc1 = purified protein; details: purified enzyme, 0.2 mM methyl viologen, 0.3 mM dithionite, 20 mM sodium phosphate pH 6.8, 37°C

## MtsZ (HiMtsZ) (Haemophilus influenzae Rd KW20)
NC(=O)c1ccc[n+]([O-])c1
  Km: 46 ± 8 µM
  kcat: 93 ± 5 s⁻¹
[O-][n+]1cccnc1
  Km: 35 ± 8 µM
  kcat: 33.2 ± 2.7 s⁻¹
